One data set deals with human PBMC. Description: Cytokine Study: PBMC - G-CSF production (G-CSF ELISA). It counts as cell-based. To be noted: mRNA with Lipofectamine 2000. The protocol:
(§1) The plates were then incubated at 37° C.
(§2) Each condition was done in duplicate.
In the G-CSF ELISA, background signal from the Lipofectamine 2000 (LF2000) untreated condition was subtracted at each time point.
In general terms: In an ELISA, binding on a coated surface is turned into a signal by an enzyme label.

Data set [1] concerns human PBMC, tumor necrosis factor alpha (TNF-alpha).
Method: 50 mL of human blood from two donors was received from Research Blood Components (lots KP30928 and KP30931) in sodium heparin tubes. For each donor, the blood was pooled and diluted to 70 mL with DPBS (SAFC Bioscience 59331C, lot 071M8408) and split evenly between two 50 mL conical tubes. 10 mL of Ficoll Paque (GE Healthcare 17-5442-03, lot 10074400) was gently dispensed below the blood layer. The tubes were centrifuged at 2000 rpm for 30 minutes with low acceleration and braking. The tubes were removed and the buffy coat PBMC layers were gently transferred to a fresh 50 mL conical and washed with DPBS. The tubes were centrifuged at 1450 rpm for 10 minutes.
The supernatant was aspirated and the PBMC pellets were resuspended and washed in 50 mL of DPBS. The tubes were centrifuged at 1250 rpm for 10 minutes. This wash step was repeated, and the PBMC pellets were resuspended in 19 mL of Optimem I (Gibco 11058, lot 1072088) and counted. The cell suspensions were adjusted to a concentration of 3.0×10̂6 cells/mL live cells.
These cells were then plated on five 96 well tissue culture treated round bottom plates (Costar 3799) per donor at 50 uL per well. Within 30 minutes, transfection mixtures were added to each well at a volume of 50 uL per well. After 4 hours post transfection, the media was supplemented with 10 uL of Fetal Bovine Serum (Gibco 10082, lot 1012368)
The plate containing the material to be transfected was incubated for 20 minutes. The transfection mixtures were then transferred to each of the human PBMC plates at 50 uL per well. The plates were then incubated at 37° C. At 2, 4, 8, 20, and 44 hours each plate was removed from the incubator, and the supernatants were frozen.
The ability of unmodified and modified mRNA to produce the encoded protein was assessed (G-CSF production) over time as was the ability of the mRNA to trigger innate immune recognition as measured by interferon-alpha production.
The test system of data set [2] is human PBMC, interferon-alpha (IFN-alpha). Description: Cytokine Study: PBMC - IFN-alpha production (ELISA). Here is the method: as §1, §2
The subject of data set [3] is female BALB/C mice, interferon-alpha (IFN-alpha). Description: In Vivo Detection of Innate Immune Response Study - mouse IFN-alpha in serum.
Method: Blood is collected at 8 hours after dosing. Using ELISA the protein levels of G-CSF, TNF-alpha and IFN-alpha is determined by ELISA.
Another data set concerns female BALB/C mice. Description: In Vivo Detection of Innate Immune Response Study - human G-CSF protein in serum. To be noted: human G-CSF in mouse serum; I.M.; 8 hours after dosing. Here is the method:
Blood is collected at 8 hours after dosing.

B1: G-CSF 5-methyl cytosine/pseudouridine: mRNA encoding human G-CSF (SEQ ID NO: 1), Cap 1, 100% substitution with 5-methyl cytidine and pseudouridine (nucleic acid, listed as Homo Sapiens)
chain: GGGAAAUAAGAGAGAAAAGAAGAGUAAGAAGAAAUAUAAGAGCCACCAUGGCCGGUCCCGCGACCCAAAGCCCCAUGAAACUUAUGGCCCUGCAGUUGCUGCUUUGGCACUCGGCCCUCUGGACAGUCCAAGAAGCGACUCCUCUCGGACCUGCCUCAUCGUUGCCGCAGUCAUUCCUUUUGAAGUGUCUGGAGCAGGUGCGAAAGAUUCAGGGCGAUGGAGCCGCACUCCAAGAGAAGCUCUGCGCGACAUACAAACUUUGCCAUCCCGAGGAGCUCGUACUGCUCGGGCACAGCUUGGGGAUUCCCUGGGCUCCUCUCUCGUCCUGUCCGUCGCAGGCUUUGCAGUUGGCAGGGUGCCUUUCCCAGCUCCACUCCGGUUUGUUCUUGUAUCAGGGACUGCUGCAAGCCCUUGAGGGAAUCUCGCCAGAAUUGGGCCCGACGCUGGACACGUUGCAGCUCGACGUGGCGGAUUUCGCAACAACCAUCUGGCAGCAGAUGGAGGAACUGGGGAUGGCACCCGCGCUGCAGCCCACGCAGGGGGCAAUGCCGGCCUUUGCGUCCGCGUUUCAGCGCAGGGCGGGUGGAGUCCUCGUAGCGAGCCACCUUCAAUCAUUUUUGGAAGUCUCGUACCGGGUGCUGAGACAUCUUGCGCAGCCGUGAAGCGCUGCCUUCUGCGGGGCUUGCCUUCUGGCCAUGCCCUUCUUCUCUCCCUUGCACCUGUACCUCUUGGUCUUUGAAUAAAGCCUGAGUAGGAAG
modifications: Cap1; 5-methylcytidine and pseudouridine
As to B1, in the data set on human PBMC, the “G-CSF: 3 Donor Average” value is 4742 pg/mL. For the same molecule, in data set [1], the “TNF-alpha production (in words)” value was “low but detectable levels” and the “TNF-alpha: 3 Donor Average” value came out at 31 pg/mL. Further, the “G-CSF/TNF-alpha (ratio), PC Ratio” value in data set [1] (human PBMC, 3 donor averages) worked out at 153. For the same molecule, in data set [2], the “IFN-alpha production (in words)” value is “low but detectable levels” and the “IFN-alpha: 3 Donor Average” value amounted to 141 pg/mL. Also, the “G-CSF/IFN-alpha (ratio), PC Ratio” value in data set [2] (human PBMC, 3 donor averages) was determined as 34.

B2: GCSF mRNA unmod: G-CSF mRNA (SEQ ID NO: 1) unmodified, 5′ cap of Cap1 (nucleic acid, listed as Homo Sapiens)
chain: GGGAAAUAAGAGAGAAAAGAAGAGUAAGAAGAAAUAUAAGAGCCACCAUGGCCGGUCCCGCGACCCAAAGCCCCAUGAAACUUAUGGCCCUGCAGUUGCUGCUUUGGCACUCGGCCCUCUGGACAGUCCAAGAAGCGACUCCUCUCGGACCUGCCUCAUCGUUGCCGCAGUCAUUCCUUUUGAAGUGUCUGGAGCAGGUGCGAAAGAUUCAGGGCGAUGGAGCCGCACUCCAAGAGAAGCUCUGCGCGACAUACAAACUUUGCCAUCCCGAGGAGCUCGUACUGCUCGGGCACAGCUUGGGGAUUCCCUGGGCUCCUCUCUCGUCCUGUCCGUCGCAGGCUUUGCAGUUGGCAGGGUGCCUUUCCCAGCUCCACUCCGGUUUGUUCUUGUAUCAGGGACUGCUGCAAGCCCUUGAGGGAAUCUCGCCAGAAUUGGGCCCGACGCUGGACACGUUGCAGCUCGACGUGGCGGAUUUCGCAACAACCAUCUGGCAGCAGAUGGAGGAACUGGGGAUGGCACCCGCGCUGCAGCCCACGCAGGGGGCAAUGCCGGCCUUUGCGUCCGCGUUUCAGCGCAGGGCGGGUGGAGUCCUCGUAGCGAGCCACCUUCAAUCAUUUUUGGAAGUCUCGUACCGGGUGCUGAGACAUCUUGCGCAGCCGUGAAGCGCUGCCUUCUGCGGGGCUUGCCUUCUGGCCAUGCCCUUCUUCUCUCCCUUGCACCUGUACCUCUUGGUCUUUGAAUAAAGCCUGAGUAGGAAG
modifications: Cap1
As for B2, the “PC Ratio” value in data set [3] (G-CSF protein / IFN-alpha in mouse serum) turned out to be 9. In data set [3] (mouse IFN-alpha in serum, I.M., 8 hours after dosing), the IFN-alpha expression was 67.01 pg/mL. Further, the G-CSF protein with female BALB/C mice stood at 605.6 pg/mL.

The record behind these values is patent US20130123481A1, “MODIFIED NUCLEOSIDES, NUCLEOTIDES, AND NUCLEIC ACIDS, AND USES THEREOF” (MODERNA THERAPEUTICS, priority 2011, published 2013).
